Substitutions are numbered along the chain they refer to.
Legend:
Ag(−) cell = test: FACS analysis with Ag(−) cell (non-specific binding); details: 5 ug/ml
Experimental: Methods—FACS analysis. Cell preparation: Cell were harvested and washed with PBS+2% FBS for one time. Cell density was adjusted to 1.5E6/mL in PBS/2% FBS. Cell were added to 96 U-bottom well plates at 100 μL/well. Antibody samples preparation: Antibody in supernatant was adjusted to 10 μg/mL using PBS+2% FBS, with serial 5 times dilution performed to obtain 3 concentrations of antibody solution. The blank was PBS+2% FBS. Antibody solutions were placed into 96 U-bottom well plates at 100 μL/well in the same arranging pattern as the cell preparation. Incubation: The antibody samples (100 μl) were mixed with the cells (100 μl), and incubated at RT for 1 h, then centrifuged the plate for 3 min at 1000 rpm (swing bucket). The supernatant was pipetted and the cells were washed with PBS+2% FBS for one time. Incubation with the secondary antibody: Cy3-Conjugated AffiniPure Goat Anti-Human IgG was diluted 250× by PBS+2% FBS, and added to the 96 U-bottom well plate with 100 μl/well, then incubated at RT for 30 min. After that, the plate was centrifuged at 1000 rpm for 3 min and the supernatant was pipetted out. The cell was washed with PBS+2% FBS twice. Cells were re-suspended in 200 μl PBS+2% FBS and analyzed on FACS. The MFI of total live cells were used as binding signal.
Methods—heat treatment. Culture supernatant was serial diluted to the indicated concentration of IgG with cell media and heated at 70° C. for 5 mins on a PCR machine, then quickly cooled down to room temperature.

antigen = biological target: T1, antigen (Homo sapiens, UniProt Q14392); test: Label-free kinetic binding assay on Gator
T1 sequence (Q14392 20-662): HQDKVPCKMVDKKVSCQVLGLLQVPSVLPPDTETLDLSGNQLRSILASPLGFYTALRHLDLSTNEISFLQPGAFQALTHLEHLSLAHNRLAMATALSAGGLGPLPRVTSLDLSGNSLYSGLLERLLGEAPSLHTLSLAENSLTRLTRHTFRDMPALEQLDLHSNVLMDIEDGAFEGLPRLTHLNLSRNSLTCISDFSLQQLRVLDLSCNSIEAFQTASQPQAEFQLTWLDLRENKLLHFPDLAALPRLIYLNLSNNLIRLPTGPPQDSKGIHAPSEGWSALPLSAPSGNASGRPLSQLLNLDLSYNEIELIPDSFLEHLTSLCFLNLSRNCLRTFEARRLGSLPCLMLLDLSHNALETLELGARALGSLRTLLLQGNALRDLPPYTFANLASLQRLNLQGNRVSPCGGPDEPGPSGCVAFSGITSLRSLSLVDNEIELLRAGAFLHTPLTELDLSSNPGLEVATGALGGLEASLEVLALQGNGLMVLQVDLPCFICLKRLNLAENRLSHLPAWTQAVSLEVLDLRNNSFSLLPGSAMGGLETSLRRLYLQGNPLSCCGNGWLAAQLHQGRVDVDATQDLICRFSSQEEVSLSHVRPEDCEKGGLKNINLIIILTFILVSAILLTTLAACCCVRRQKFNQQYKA
Experimental: Affinity measurement. Label-free kinetic binding assay was performed on Gator (similar to Octet).
Methods. Affinity was measured on Gator (ProbeLife, Palo Alto). In brief, the purified IgG sample was diluted in K buffer at 2 μg/ml, and the antigen was diluted at 5 μg/ml. The antibody-loaded anti-human Fc probes were dipped in antigen wells for 5 mins and then moved to K buffer wells for 5 mins. In the whole process, the sample plate was shaken at 1,000 rpm. The data analysis was carried out using Gator software (ProbeLife).

[1] = Thermostability by DSF/SLS (UNcle); type: physicochemical
Experimental: Developability Analysis for PIIO-1 humanization leads. Antibodies were analyzed for thermostability by DSF/SLS. Samples were submitted to the UNcle system (Unchained Labs) for analysis. A temperature ramp of 1° C./min was performed with monitoring from 20° C. to 95° C. for DSF and SLS. UNcle measures SLS at 266 nm and 473 nm. Tm and Tagg were calculated and analyzed by using the UNcle Analysis Software. DSF: Differential scanning fluorimetry; SLS: Static light scattering; Tm: Melting temperature; Tagg 266: Thermal aggregation when SLS at 266 nm; Tagg 473: Thermal aggregation when SLS at 473 nm. A summary is shown below in Table F:
IgG is a multi-domain structure and each domain has its own melting Temperature (Tm). […] Fabs have Tm in a wide range, generally about 50-85° C., due to large sequence variation. Therefore, the Tm values measured by various analytical techniques are usually “apparent” transition temperatures rather than the real Tm for each domain. In the case of whole IgG, there are often 2-3 Tm values in DSF measurement, presenting some challenge in determining which Tm represents which domain.
Tagg is the temperature at which SLS starts to detect aggregation particles. Tagg266 measures SLS at 266 nm, which is more sensitive and suitable to detect smaller aggregation particles. Tagg473 measures SLS at 473 nm and is better to detect larger particles.

[2] = Aggregation potential by DLS analysis; type: physicochemical
Experimental: Aggregation potential by DLS analysis. DLS was performed on UNcle system (Unchained Labs). DLS was measured at 25° C. Data was calculated and analyzed using UNcle Analysis Software. DLS: Dynamic light scattering PDI: Polydispersity index, PDI=(standard deviation/mean hydrodynamic radius).
Dynamic Light Scattering (DLS) is used to detect aggregation in the antibody sample. “Mode diameter” is protein particle diameter and “mass percentage” is the amount of each size fraction in percentage. “PDI” is Polydispersity Index; the higher this index, the more polydispersity in the sample is. […] Peak 1 is the major peak and represents the IgG monomer. The inventor takes “Peak 1 mass percentage” and “PDI” value into consideration in selecting a lead.

[3] = Reducing CE-SDS (heterogeneity); type: physicochemical
Experimental: (§1) Analysis of the heterogeneity by Capillary Electrophoresis (CE). The sample was prepared in reducing and non-reducing labeling buffer before being submitted to the CE analysis. A summary of the Reducing-CE-SDS and Non-Reducing-CE-SDS results are shown in FIG. 13A/Table H and FIG. 13B/Table I, respectively: […]

[4] = Non-reducing CE-SDS (heterogeneity); type: physicochemical
Experimental: as §1

Baculovirus = Baculovirus (BV) ELISA for non-specific binding
Experimental: Baculovirus (BV) ELISA was employed as a preliminary assay to evaluate antibody's potential nonspecific binding risk.
In Baculovirus (BV) ELISA, the inventor used Rituxan Mab as reference. […] If a clone only has binding on BV, but not on 293 cells, it will be considered as having a low risk of non-specific binding.
Methods—Baculovirus ELISA. Plates are coated with 50 μl of 1:500 diluted Baculovirus sample in PBS in each well. Plates are kept at 4° C. for overnight. The plates are washed with 300 μL of wash buffer ×3 and 200 μl blocking buffer (1% BSA) is added at RT for 60 min. Plates are washed with 300 μl of wash buffer ×3 and 100 μl of diluted Abs are added at different concentrations/well, followed by RT incubation for 1 hr. Plates are washed with 300 μl of wash buffer ×6 and 100 μl of 1:5000 HRP conjugated second Ab in PBS is added followed by RT incubation for 1 hr. The plates are washed with 300 μl of wash buffer ×6. Developing buffer is added and the plate is read.

[5] = IgG 2 μg/ml on anti-human Fc probes, antigen 5 μg/ml
[6] = ramp 1° C./min, 20° C. to 95° C.

B1: H1L2: humanized PIIO-1 antibody, VH SEQ ID NO: 20 and VL SEQ ID NO: 24 (antibody, V domains shown)
VH: QVQLQESGPGLVKPSQTLSLTCTVSGYSITSDYAWNWIRQFPGNKLEWMGYISYSGSTSYTPSLKSRVTISRDTSKNHFSLKLSSVTAADTAVYYCAKSGGDYYGSSSYWYFDVWGQGTMVTVSS
VL: DIVLTQSPSSLAVSLGERVTMNCKSSQSLLNSRSQKNYLAWYQQKPGQPPKLLIYGASTRGSGVPDRFSGSGSGTDFTLTISSVQAEDVAVYYCQNDHSYPFTFGQGTKLEIKR
FACS with Ag(−) cell (MFI) (Ag(−) cell; Heating): 3.35
FACS with Ag(−) cell (MFI) (Ag(−) cell; Non-Heating): 3.24
KD value compared with the chimeric (antigen): same KD value to the chimeric
Rmax (antigen; [5]): 0.885
koff (antigen; [5]): 0.000813
kon (antigen; [5]): 9.98E+04
thermostability compared with parental 4D3 chimeric antibody (Table F) [1]: superior thermostability over the parental 4D3 chimeric antibody
SLS Tagg 266 ([1]; SLS at 266 nm): 78.8 °C
SLS Tagg 473 ([1]; SLS at 473 nm): 79.3 °C
aggregation risk ([1]; from Tagg266 and Tagg473 in SLS assay): very low aggregation risk
DSF TM2 [1, 6]: 76.7 °C
DSF Tm1 [1, 6]: 70.0 °C
DSF Tm3 [1, 6]: 87.5 °C
comparison of humanized antibodies by Table G [2]: superior to huPIIO-1VH1VL1
Peak 1 Mass ([2]; DLS at 25° C.): 99.94%
Peak 1 Mode Diameter ([2]; DLS at 25° C.): 9.68 nm
Peak 1 PDI ([2]; DLS at 25° C.): 0.361
Peak 2 Mass ([2]; DLS at 25° C.): 0%
PDI compared with WT ([2]; listed as VH1VL2): slightly higher PDI than that of the chimeric clone
homogeneity (Table H) [3]: superior homogeneity versus clone huPIIO-1VH2VL1
OTHER (%) ([3]; Reducing-CE-SDS): 0.9%
PK#1 (%) ([3]; Reducing-CE-SDS): 1.4%
PK#2 (%) ([3]; Reducing-CE-SDS): 29.1%
PK#3 (%) ([3]; Reducing-CE-SDS): 68.7%
Main Peak (%) [4]: 97.6%
OTHER (%) [4]: 2.4%
BV ELISA with purified IgG, raw BV binding data (Baculovirus; Ab. Conc. 0.15625 ug/ml): 15.6
BV ELISA with purified IgG, raw BV binding data (Baculovirus; Ab. Conc. 0.3125 ug/ml): 15.4
BV ELISA with purified IgG, raw BV binding data (Baculovirus; Ab. Conc. 0.625 ug/ml): 23.5
BV ELISA with purified IgG, raw BV binding data (Baculovirus; Ab. Conc. 1.25 ug/ml): 26.6
BV ELISA with purified IgG, raw BV binding data (Baculovirus; Ab. Conc. 2.5 ug/ml): 39.6
BV ELISA with purified IgG, raw BV binding data (Baculovirus; Ab. Conc. 5 ug/ml): 38.1
BV ELISA with purified IgG, raw BV binding data (Baculovirus; Ab. Conc. 10 ug/ml): 102.3
BV ELISA with purified IgG, raw BV binding data (Baculovirus; Ab. Conc. 20 ug/ml): 253.4
BV-binding in words (Baculovirus; purified antibodies, Rituxan as reference): a bit higher signal

B2: H2L3: humanized PIIO-1 antibody, VH SEQ ID NO: 21 and VL SEQ ID NO: 22 (antibody, V domains shown)
VH: B1 VH with V68I, S80F
VL: B1 VL with L15A, N22S, Q106S
FACS with Ag(−) cell (MFI) (Ag(−) cell; Heating): 3.35
FACS with Ag(−) cell (MFI) (Ag(−) cell; Non-Heating): 3.18

B3: H3L3: humanized PIIO-1 antibody, VH SEQ ID NO: 19 and VL SEQ ID NO: 22 (antibody, V domains shown)
VH: B1 VH with Q1D, V68I, S80F, V93T, M120T
VL: B1 VL with L15A, N22S, Q106S
FACS with Ag(−) cell (MFI) (Ag(−) cell; Heating): 3.29
FACS with Ag(−) cell (MFI) (Ag(−) cell; Non-Heating): 3.16

B4: H4L3: humanized PIIO-1 antibody, VH SEQ ID NO: 18 and VL SEQ ID NO: 22 (antibody, V domains shown)
VH: B1 VH with Q1D, V68I, S80F, K82Q, A89E, V93T, M120T
VL: B1 VL with L15A, N22S, Q106S
FACS with Ag(−) cell (MFI) (Ag(−) cell; Heating): 3.36
FACS with Ag(−) cell (MFI) (Ag(−) cell; Non-Heating): 3.27

B5: H3L1: humanized PIIO-1 antibody, VH SEQ ID NO: 19 and VL SEQ ID NO: 23 (antibody, V domains shown)
VH: B1 VH with Q1D, V68I, S80F, V93T, M120T
VL: B1 VL with V19A, V84L
FACS with Ag(−) cell (MFI) (Ag(−) cell; Heating): 3.4
FACS with Ag(−) cell (MFI) (Ag(−) cell; Non-Heating): 3.28

B6: H4L1: humanized PIIO-1 antibody, VH SEQ ID NO: 18 and VL SEQ ID NO: 23 (antibody, V domains shown)
VH: B1 VH with Q1D, V68I, S80F, K82Q, A89E, V93T, M120T
VL: B1 VL with V19A, V84L
FACS with Ag(−) cell (MFI) (Ag(−) cell; Heating): 3.25
FACS with Ag(−) cell (MFI) (Ag(−) cell; Non-Heating): 3.11

B7: H2L2: humanized PIIO-1 antibody, VH SEQ ID NO: 21 and VL SEQ ID NO: 24 (antibody, V domains shown)
VH: B1 VH with V68I, S80F
VL: B1 VL
FACS with Ag(−) cell (MFI) (Ag(−) cell; Non-Heating): 3.24

B8: H3L2: humanized PIIO-1 antibody, VH SEQ ID NO: 19 and VL SEQ ID NO: 24 (antibody, V domains shown)
VH: B1 VH with Q1D, V68I, S80F, V93T, M120T
VL: B1 VL
FACS with Ag(−) cell (MFI) (Ag(−) cell; Heating): 3.26
FACS with Ag(−) cell (MFI) (Ag(−) cell; Non-Heating): 3.37

B9: H4L2: humanized PIIO-1 antibody, VH SEQ ID NO: 18 and VL SEQ ID NO: 24 (antibody, V domains shown)
VH: B1 VH with Q1D, V68I, S80F, K82Q, A89E, V93T, M120T
VL: B1 VL
FACS with Ag(−) cell (MFI) (Ag(−) cell; Heating): 3.29
FACS with Ag(−) cell (MFI) (Ag(−) cell; Non-Heating): 3.26

B10: H1L3: humanized PIIO-1 antibody, VH SEQ ID NO: 20 and VL SEQ ID NO: 22 (antibody, V domains shown)
VH: B1 VH
VL: B1 VL with L15A, N22S, Q106S
FACS with Ag(−) cell (MFI) (Ag(−) cell; Heating): 3.33
FACS with Ag(−) cell (MFI) (Ag(−) cell; Non-Heating): 3.22

Source: patent US20240425571A1, “GLYCOPROTEIN A REPETITIONS PREDOMINANT (GARP)-BINDING ANTIBODIES AND USES THEREOF” (OHIO STATE INNOVATION FOUNDATION, priority 2021, published 2024)
